Experimental findings from patent publication US8728472 (University of Texas, dated 2014) are described below.

Assay [1] has as its target T1, p25 generated in rat brain or rat striatal neurons by ischemia (MCAO or OGD) (rat, UniProt P61809 99-307 (mouse entry)).
T1 construct: Endogenous protein in tissue sections, lysates and primary cultures; also called p25 generated by MCAO; p25 generated in response to focal ischemia
In words: detection of p25 in stroked rat brain; immunostains of striatum and cortex (FIG. 7D).

Assay [2] addresses T2, Cdk5 expressed in HEK293T cells from a transfected eukaryotic expression plasmid (UniProt Q00535 1-292).
T2 construct: also called cyclin-dependent kinase 5
In words: immunohistochemical staining of transfected HEK293T cells (FIG. 2C).

The target in a further assay is T3, p35 (Mus musculus (Mouse), UniProt P61809 1-307).
T3 construct: also called Cdk5 cofactor p35
T3 sequence (P61809 whole entry): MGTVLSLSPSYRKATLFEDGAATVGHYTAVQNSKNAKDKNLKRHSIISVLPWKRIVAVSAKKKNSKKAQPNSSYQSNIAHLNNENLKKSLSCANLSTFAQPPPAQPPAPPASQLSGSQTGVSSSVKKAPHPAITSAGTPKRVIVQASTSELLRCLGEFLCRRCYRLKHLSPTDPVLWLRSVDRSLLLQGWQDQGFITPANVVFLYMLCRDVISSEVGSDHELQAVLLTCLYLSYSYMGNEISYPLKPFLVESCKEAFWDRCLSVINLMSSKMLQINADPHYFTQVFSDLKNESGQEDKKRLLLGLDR
In words: immunoblot of striatal lysates from p25 over-expressing mice (FIG. 2B).

T1 sequence (P61809 99-307 limits assumed): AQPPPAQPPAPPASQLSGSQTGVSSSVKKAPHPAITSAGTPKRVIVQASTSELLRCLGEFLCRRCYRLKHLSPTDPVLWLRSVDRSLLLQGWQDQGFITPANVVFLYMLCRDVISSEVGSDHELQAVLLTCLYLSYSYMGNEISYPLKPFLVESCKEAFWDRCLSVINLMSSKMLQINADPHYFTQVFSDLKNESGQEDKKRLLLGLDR

B1: anti-p25 monoclonal antibody 1C4 (antibody, V domains shown)
VH: QIQLEESGPELRKPGETVRISCKASGYTFTTAGMQWVQKMPGTGLKWIGWINTHSGVPKYAGEFTGRFDFSLETSASTAYLQIVNLKNEDTATYFCARYGKFGEMDYWGQGTSVTVSS
VL: IVMTQSPASLAVSLGQRATISCRSSETVDSDGNSFMHWYQQKPGQSPKLLLYLASTLESGVPARFSGSGSRTDFTLTIDPVEADDAATYYCHQNNEDPTFGGGTKLEIKR
notes: Mouse monoclonal antibody from hybridoma 1C4; also called p25 mAb; anti-p25 antibody
In the case of B1, the binding result in assay [1] was “binds”; in assay [2], “no binding”; in the assay with p35, “no binding”.
